First the molecules themselves.
B1: Double-stranded RNA-specific adenosine deaminase, residues 296 to 358; numbered along this chain, P55265 (parent)
chain: MAEIKEKICDYLFNVSDSSALNLAKNIGLTKARDINAVLIDMERQGDVYRQGTTPPIWHLTDK

± gives the uncertainty stated by the source.

In the data set the parent is B1. As to the kind of experiment: abundance fitness (aPCA) (normalised: wild type 0, dead -1); higher = more abundant; growth selection in yeast, the domain comes from the species named. As to conditions: Homo sapiens.
For MAEINEKICDYLFNVSDSSALNLAKNIGLTKARDINAVLIDMERQGDVYRQGTTPPIWHLTDK [K5N], the abundance fitness was -0.555 ± 0.097. MAEIGEKICDYLFNVSDSSALNLAKNIGLTKARDINAVLIDMERQGDVYRQGTTPPIWHLTDK [K5G]: the abundance fitness was -0.616 ± 0.084. For MAEICEKICDYLFNVSDSSALNLAKNIGLTKARDINAVLIDMERQGDVYRQGTTPPIWHLTDK [K5C] the value was -0.924 ± 0.15; for MAEIAEKICDYLFNVSDSSALNLAKNIGLTKARDINAVLIDMERQGDVYRQGTTPPIWHLTDK [K5A], -0.428 ± 0.058.

Turning to MAEIIEKICDYLFNVSDSSALNLAKNIGLTKARDINAVLIDMERQGDVYRQGTTPPIWHLTDK [K5I], the abundance fitness was -0.512 ± 0.081. For MAEIQEKICDYLFNVSDSSALNLAKNIGLTKARDINAVLIDMERQGDVYRQGTTPPIWHLTDK [K5Q] the value was -0.28 ± 0.065; for MAEIPEKICDYLFNVSDSSALNLAKNIGLTKARDINAVLIDMERQGDVYRQGTTPPIWHLTDK [K5P], -0.486 ± 0.069; for MAEIREKICDYLFNVSDSSALNLAKNIGLTKARDINAVLIDMERQGDVYRQGTTPPIWHLTDK [K5R], -0.118 ± 0.052. Regarding MAEIMEKICDYLFNVSDSSALNLAKNIGLTKARDINAVLIDMERQGDVYRQGTTPPIWHLTDK [K5M], the abundance fitness is -0.574 ± 0.082. Regarding MAEIHEKICDYLFNVSDSSALNLAKNIGLTKARDINAVLIDMERQGDVYRQGTTPPIWHLTDK [K5H], the abundance fitness is -0.68 ± 0.1. As for MAEIFEKICDYLFNVSDSSALNLAKNIGLTKARDINAVLIDMERQGDVYRQGTTPPIWHLTDK [K5F], the abundance fitness was -0.449 ± 0.066.

In the case of MAEIEEKICDYLFNVSDSSALNLAKNIGLTKARDINAVLIDMERQGDVYRQGTTPPIWHLTDK [K5E], the abundance fitness was -0.666 ± 0.22. Consider MASIKEKICDYLFNVSDSSALNLAKNIGLTKARDINAVLIDMERQGDVYRQGTTPPIWHLTDK [E3S], for which the abundance fitness was -0.213 ± 0.045. Turning to MAYIKEKICDYLFNVSDSSALNLAKNIGLTKARDINAVLIDMERQGDVYRQGTTPPIWHLTDK [E3Y], the abundance fitness was -0.298 ± 0.059. Regarding MANIKEKICDYLFNVSDSSALNLAKNIGLTKARDINAVLIDMERQGDVYRQGTTPPIWHLTDK [E3N], the abundance fitness is -0.196 ± 0.078. As to MAVIKEKICDYLFNVSDSSALNLAKNIGLTKARDINAVLIDMERQGDVYRQGTTPPIWHLTDK [E3V], the abundance fitness is -0.471 ± 0.081. Regarding MALIKEKICDYLFNVSDSSALNLAKNIGLTKARDINAVLIDMERQGDVYRQGTTPPIWHLTDK [E3L], the abundance fitness is -0.552 ± 0.055. For MAWIKEKICDYLFNVSDSSALNLAKNIGLTKARDINAVLIDMERQGDVYRQGTTPPIWHLTDK [E3W], the abundance fitness is -0.147 ± 0.054. For the variant MATIKEKICDYLFNVSDSSALNLAKNIGLTKARDINAVLIDMERQGDVYRQGTTPPIWHLTDK [E3T], the abundance fitness was -0.159 ± 0.059. For MAKIKEKICDYLFNVSDSSALNLAKNIGLTKARDINAVLIDMERQGDVYRQGTTPPIWHLTDK [E3K] the value was -0.21 ± 0.061; for MAQIKEKICDYLFNVSDSSALNLAKNIGLTKARDINAVLIDMERQGDVYRQGTTPPIWHLTDK [E3Q], -0.368 ± 0.11.

Turning to MAMIKEKICDYLFNVSDSSALNLAKNIGLTKARDINAVLIDMERQGDVYRQGTTPPIWHLTDK [E3M], the abundance fitness was -0.621 ± 0.15. On to MAPIKEKICDYLFNVSDSSALNLAKNIGLTKARDINAVLIDMERQGDVYRQGTTPPIWHLTDK [E3P], for which the abundance fitness is -0.383 ± 0.077.

For MARIKEKICDYLFNVSDSSALNLAKNIGLTKARDINAVLIDMERQGDVYRQGTTPPIWHLTDK [E3R], the abundance fitness is -0.334 ± 0.05.

Consider MAEDKEKICDYLFNVSDSSALNLAKNIGLTKARDINAVLIDMERQGDVYRQGTTPPIWHLTDK [I4D], for which the abundance fitness is -0.121 ± 0.058. As for MAEQKEKICDYLFNVSDSSALNLAKNIGLTKARDINAVLIDMERQGDVYRQGTTPPIWHLTDK [I4Q], the abundance fitness is -0.327 ± 0.068. For MAEKKEKICDYLFNVSDSSALNLAKNIGLTKARDINAVLIDMERQGDVYRQGTTPPIWHLTDK [I4K], the abundance fitness is -0.2 ± 0.084. Take MAEVKEKICDYLFNVSDSSALNLAKNIGLTKARDINAVLIDMERQGDVYRQGTTPPIWHLTDK [I4V]: the abundance fitness is -0.293 ± 0.042. With MAESKEKICDYLFNVSDSSALNLAKNIGLTKARDINAVLIDMERQGDVYRQGTTPPIWHLTDK [I4S], the abundance fitness was -0.311 ± 0.04. Consider MAEGKEKICDYLFNVSDSSALNLAKNIGLTKARDINAVLIDMERQGDVYRQGTTPPIWHLTDK [I4G], for which the abundance fitness was -0.435 ± 0.043. The same measure for MAEYKEKICDYLFNVSDSSALNLAKNIGLTKARDINAVLIDMERQGDVYRQGTTPPIWHLTDK [I4Y]: -0.398 ± 0.063. On to MAEMKEKICDYLFNVSDSSALNLAKNIGLTKARDINAVLIDMERQGDVYRQGTTPPIWHLTDK [I4M], for which the abundance fitness is -0.217 ± 0.056. Turning to MAERKEKICDYLFNVSDSSALNLAKNIGLTKARDINAVLIDMERQGDVYRQGTTPPIWHLTDK [I4R], the abundance fitness is -0.387 ± 0.043. On to MAEHKEKICDYLFNVSDSSALNLAKNIGLTKARDINAVLIDMERQGDVYRQGTTPPIWHLTDK [I4H], for which the abundance fitness was -0.227 ± 0.064. For MAENKEKICDYLFNVSDSSALNLAKNIGLTKARDINAVLIDMERQGDVYRQGTTPPIWHLTDK [I4N] the value was -0.327 ± 0.059. On to MAEAKEKICDYLFNVSDSSALNLAKNIGLTKARDINAVLIDMERQGDVYRQGTTPPIWHLTDK [I4A], for which the abundance fitness is -0.37 ± 0.048.

With MAEFKEKICDYLFNVSDSSALNLAKNIGLTKARDINAVLIDMERQGDVYRQGTTPPIWHLTDK [I4F], the abundance fitness is -0.649 ± 0.082. MAELKEKICDYLFNVSDSSALNLAKNIGLTKARDINAVLIDMERQGDVYRQGTTPPIWHLTDK [I4L]: the abundance fitness came to 0.146 ± 0.03.

In the case of MAEPKEKICDYLFNVSDSSALNLAKNIGLTKARDINAVLIDMERQGDVYRQGTTPPIWHLTDK [I4P], the abundance fitness was -0.551 ± 0.061. For MAECKEKICDYLFNVSDSSALNLAKNIGLTKARDINAVLIDMERQGDVYRQGTTPPIWHLTDK [I4C], the abundance fitness is -0.995 ± 0.092. For the variant MAETKEKICDYLFNVSDSSALNLAKNIGLTKARDINAVLIDMERQGDVYRQGTTPPIWHLTDK [I4T], the abundance fitness is -0.24 ± 0.054. Consider MAEWKEKICDYLFNVSDSSALNLAKNIGLTKARDINAVLIDMERQGDVYRQGTTPPIWHLTDK [I4W], for which the abundance fitness was -0.666 ± 0.07.

With MAEEKEKICDYLFNVSDSSALNLAKNIGLTKARDINAVLIDMERQGDVYRQGTTPPIWHLTDK [I4E], the abundance fitness is -0.287 ± 0.075.

Values taken from the Human Domainome abundance scans (Beltran et al. 2025).
